Columns and labels:
[1] = molecular target: ENO1 mutant 1-189 (human) (UniProt P06733); experiment: ELISA, 400 ng protein coated, 10 microgram of EN10 mAb
[2] = molecular target: ENO1 mutant 1-297 (human) (UniProt P06733); experiment: as above
[3] = molecular target: ENO1 with amino acid residues 297 to 434 deleted (human) (UniProt P06733); experiment: ELISA, ENO1 deletion mutant Δ297-434 coated, 10 microgram of EN10 mAb
ENO1 with amino acid residues 297 to 434 deleted (human), sequence (P06733 1-296, stated change not applied): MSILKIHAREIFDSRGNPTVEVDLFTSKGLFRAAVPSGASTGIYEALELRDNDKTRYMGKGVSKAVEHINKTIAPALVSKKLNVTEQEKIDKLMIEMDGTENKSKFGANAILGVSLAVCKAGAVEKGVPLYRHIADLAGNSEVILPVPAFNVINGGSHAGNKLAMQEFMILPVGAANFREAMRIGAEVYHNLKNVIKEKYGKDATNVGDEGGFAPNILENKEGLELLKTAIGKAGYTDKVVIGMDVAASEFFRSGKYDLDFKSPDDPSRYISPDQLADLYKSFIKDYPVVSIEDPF

OD405 [1]: 1.43 OD405 | OD405 as percent of that of the wild type ENO1 [1]: 42% | OD405 [2]: 1.56 OD405 | OD405 as percent of that of the wild type ENO1 [2]: 39% | OD450 [3]: 0.47
B1: EN10 mAb (antibody, V domains shown)
VH: EVQLQQSGPELVKPGASVKMSCKASGYTFTSCVMNWVKQKPGQGLEWIGYINPYNDGTKYNEKFKGKATLTSDKSSSTAYMELSSLTSEDSAVYYCAREGFYYGNFDNWGQGTTLTVSS
VL: DIQMTQSPASLSASVGETVTITCRASENIYSYLTWYQQKQGKSPQLLVYNAKTLPEGVPSRFSGSGSGTQFSLKINSLQPEDFGSYYCQHHYGTPYTFGGGTKLEITR
